Tests used:
[1] = system: Xanthomonas translucens pv. translucens LMG876; experiment: Barley leaf infection; format: in vivo; details: single spraying of 1 mL, 10 mg/mL
Description: (§1) FIG. 30A-30F show control of plant infections by a single spraying of 1 mL of lactonase solution (10 mg/mL) on plant leaves and crop. (A) and (B) Soft rot potato assay.
(§2) Specifically, we could establish infection systems for corn, wheat, and barley plants, and a crop infection system for potato (tubers and leaves).

[2] = system: Pectobacterium carotovorum CIR354; experiment: Soft rot potato assay; format: in vivo; details: single spraying of 1 mL, 10 mg/mL
Description: as §1, §2

[3] = Lactonase assay (pH indicator, cresol purple), kinetic measurements; format: biochemical; details: AHL acyl chain length
Description: Kinetic measurements. The determination of GcL catalytic efficiency was performed by using a microplate reader (Synergy HTX, BioTek, USA) and the software Gen5.1 over a range of substrates (FIG. 2). The reactions were operate in a 96-well plate at a path length of 5.8 mm for a 200 μl reaction volume at room temperature. The catalytic parameters were achieved by fitting the data to Michaelis-Menten equation with the Graph-Pad Prism 5 software. When, Vmax was not reached, the catalytic efficiency was determined by fitting the linear part of Michaelis-Menten plot to a linear regression using Graph-Pad Prism 5.
Lactonase assay. The AHL lactonolysis consisting in the opening of the lactone ring generates a proton, and leads to an acidification of the media. This property allowed the characterization of the lactonases by using a pH indicator assay. To perform the experiment 5 μl of enzyme were added to a solution containing 10 μl of substrates at various concentrations and 185 μl of lactonase buffer (2.5 mM Bicine pH 8.3, 150 mM NaCl, 0.2 mM CoCl2, 0.2 mM cresol purple, 0.5% DMSO). This assay was performed at 25° C. and the time course of the lactones hydrolysis was recorded at 577 nm. The characterization of the enzyme was proceeding against a large panel of AHLs: C4-AHL, C6-AHL, C8-AHL, C10-AHL, 3-oxo-C8-AHL and against γ-Butyrolactone, γ-Heptalactone, γ-Nonalactone, γ-Decanolactone, δ-Valerolactone, δ-Octanolactone, δ-Nonalactone, δ-Decalactone, ε-Caprolactone, ε-Decalactone, Whiskey lactone.

B1: SsoPox W263I: improved variant of the hyperthermostable lactonase SsoPox from Sulfolobus solfataricus, exhibiting higher catalytic rates (protein, UniProt Q97VT7 1-314, looked up, variant W263I)
Aryldialkylphosphatase: MRIPLVGKDSIESKDIGFTLIHEHLRVFSEAVRQQWPHLYNEDEEFRNAVNEVKRAMQFGVKTIVDPTVMGLGRDIRFMEKVVKATGINLVAGTGIYIYIDLPFYFLNRSIDEIADLFIHDIKEGIQGTLNKAGFVKIAADEPGITKDVEKVIRAAAIANKETKVPIITHSNAHNNTGLEQQRILTEEGVDPGKILIGHLGDTDNIDYIKKIADKGSFIGLDRYGLDLFLPVDKRNETTLRLIKDGYSDKIMISHDYCCTIDIGTAKPEYKPKLAPRWSITLIFEDTIPFLKRNGVNEEVIATIFKENPKKFFS
leaf spots on barley leaves [1]: Absence of leaf spots | maceration of potato slices [2]: less maceration | substrate specificity [3]: not capable of degrading short chain AHLs
